Data taken from patent US20260083855A1.

How the values were obtained:
Experiment in all cases: cell-based or functional assay
[1] = target: IL-2R on human cells (activated CD4 T cells, PBMC subsets, NK92) (human) (UniProt P14784); parameters: AUC of STAT5-P on PD1+ T cells / AUC of STAT5-P on PD1-blocked T cells: unit not given beside the values
[2] = target: IL-2R on human cells (activated CD4 T cells, PBMC subsets, NK92) (human) (UniProt P14784); parameters: EC50 on MFI of STAT5-P, PD-1+ CD4 T cells: unit not given beside the values
[3] = target: IL-2R on human cells (activated CD4 T cells, PBMC subsets, NK92) (human) (UniProt P14784)

IL-2R on human cells (activated CD4 T cells, PBMC subsets, NK92) (human), sequence (P14784 27-551, chain 1 of 2): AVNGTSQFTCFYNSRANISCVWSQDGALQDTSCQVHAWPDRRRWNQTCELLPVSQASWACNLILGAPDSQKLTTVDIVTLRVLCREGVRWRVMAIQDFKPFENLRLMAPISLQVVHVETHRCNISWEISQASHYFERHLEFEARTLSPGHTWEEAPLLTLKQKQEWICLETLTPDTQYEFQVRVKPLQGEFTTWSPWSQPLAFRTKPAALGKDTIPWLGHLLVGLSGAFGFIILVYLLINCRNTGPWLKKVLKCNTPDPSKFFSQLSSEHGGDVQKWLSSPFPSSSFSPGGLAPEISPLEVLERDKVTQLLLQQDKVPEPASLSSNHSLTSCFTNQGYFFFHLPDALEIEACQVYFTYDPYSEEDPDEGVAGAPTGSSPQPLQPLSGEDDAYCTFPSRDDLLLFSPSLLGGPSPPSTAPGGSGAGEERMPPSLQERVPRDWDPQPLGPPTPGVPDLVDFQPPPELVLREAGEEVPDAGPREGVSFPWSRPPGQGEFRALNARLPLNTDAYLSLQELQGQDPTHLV
IL-2R on human cells (activated CD4 T cells, PBMC subsets, NK92) (human), sequence (P31785 23-369, chain 2 of 2, further chain): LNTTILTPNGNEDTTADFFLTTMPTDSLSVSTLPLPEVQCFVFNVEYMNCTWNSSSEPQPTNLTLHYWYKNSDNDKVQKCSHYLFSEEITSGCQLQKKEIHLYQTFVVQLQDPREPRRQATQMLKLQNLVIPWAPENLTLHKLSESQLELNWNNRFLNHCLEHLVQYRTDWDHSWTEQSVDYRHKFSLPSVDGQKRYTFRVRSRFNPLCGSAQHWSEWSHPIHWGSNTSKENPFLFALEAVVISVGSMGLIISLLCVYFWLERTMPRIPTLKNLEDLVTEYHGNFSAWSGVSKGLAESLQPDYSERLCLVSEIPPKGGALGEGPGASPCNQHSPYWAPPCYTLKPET

In the case of FAP-IL2v, the AUC of STAT5-P on PD1+ T cells [1] is reported as 144, the AUC of STAT5-P on PD1-blocked T cells [1] is reported as 142 and the Potency reduction vs PD1-IL2v [1] is reported as 8.13 fold. The EC50 on MFI of STAT5-P, PD-1+ CD4 T cells [2] was 8530, the Potency reduction versus PD1-IL2v (MFI) [2] was 12.6 fold and the Potency reduction versus PD1-IL2v (frequency) [2] was 12.9 fold. It also gave a Percentage of internalization (0.6 nM, activated CD4 T cells, 3 h at 37 C) [3] of 89.8% and a Potency reduction vs PD1-IL2v on PD-1+ LAG-3+ T cells [3] of 107 fold.
